How the values were obtained:
[1] = system: adherent invasive E. coli isolates (AIEC) 95, 419, 615 and LF82; test: spot test of purified colicin on a growing lawn of cells (zones of inhibition); assay type: cell-based; conditions: isolates 95, 419, 615 and LF82; 2 μl drop of 0.2 mg/ml colicin, 18 h
Experimental: Briefly, 25 μl of a log phase bacterial culture (OD600=0.6) was added to 5 ml of molten 0.8% agarose and poured on top of an LB agar plate. A 2 μl drop of each colicin (0.2 mg/ml) was spotted onto the overlay plate. The plates were incubated for 18 h and examined for zones of inhibition. All E. coli isolates tested were sensitive to the cytotoxic activity of the four colicin proteins, as indicated by the presence of clear zones representing cell killing (not shown).

[2] = system: AIEC in the biofilm state; test: MBEC biofilm assay, viability by XTT; assay type: cell-based, E. coli; conditions: for ability to kill AIEC in the biofilm state: 6 additional strains of AIEC; for antimicrobial activity against biofilm-associated cells compared with ampicillin, metronidazole and rifaximin: all isolates; for relative effectiveness among colicins in killing AIEC in the biofilm state: multiple AIEC strains
Description: The clinically relevant state for AI E. coli in the infected gut mucosa is the biofilm state in which bacteria show enhanced tolerance to antibiotics. We therefore tested the ability of colicins to kill AI E. coli in the biofilm state using the MBEC Physiology and Genetics Assay (Innovotech). In this assay, biofilm growth occurs on 96 identical pegs protruding from the lid of a 96-well microtitre plate.
To determine the cytotoxicity of colicins against LF82 biofilms we compared the % cell survival of AIEC in biofilms treated with colicins with those exposed to antibiotics which are frequently prescribed in the treatment of Crohn's disease (FIG. 1). Biofilms were formed on the MBEC™ 96-peg plate platform for 24 h, then challenged for 1 h with 150 μl dilutions of the antibiotics (ampicillin, ciprofloxacin, metronidazole and rifaximin) and colicins (E1, E3, E9 and D) in sterile PBS in the concentration range 0.002 μg/ml-200 μg/ml. All dilutions of antimicrobials were done in triplicate and control antimicrobial-free biofilms were treated with 150 μl of sterile PBS. Following treatment, the viability of biofilm-associated cells was tested using the metabolic dye XTT. The XTT salt changes colour when it is metabolised by viable cells. This colour change can be compared to untreated antimicrobial-free biofilms, giving an indication of the percentage survival in biofilms exposed to the antimicrobials.
We further tested the ability of colicins E1 (a pore-forming colicin) E3 (a rRNase), E9 (a DNase), D (a tRNase) and IA (a pore-forming colicin) to kill 6 additional strains of AIEC in the biofilm state.

[3] = system: intracellular E. coli LF82 in infected murine macrophages (J774); test: macrophage model of AIEC infection, colony counts of intracellular bacteria; assay type: cell-based; conditions: for killing of intracellular LF82 in infected macrophages: infected macrophages treated for 4 and 24 hours, FIG. 4
Experimental: AI E. coli are able to infect and replicate within macrophages and epithelial cells. To determine if colicin E1 is able to kill intracellular bacteria raw murine macrophages (J774) were infected with AI E. coli LF82 and treated with colicin E1 (FIG. 3).
Raw murine macrophages (J774) were grown in 24-well tissue culture plates in RPMI tissue culture media (containing 3% fetal calf serum, 1% […], 1% pen/strep) at 37° C. in 5% CO2 until the cells reached 70-80% confluency. The macrophages were then infected with E. coli LF82 at a multiplicity of infection of 50 (MOI 50). After 2 h of infection, the macrophages were exposed to the antibiotic gentamicin (100 μg/ml) to kill any bacteria outside the macrophage which hadn't successfully invaded the cell. The LF82-infected macrophages were then treated with colicin E1 (10, 0.1, 0.001 μg/ml) for 3 h at 37° C. The macrophages were then scraped from the surface of the plate, lysed with Triton X and the intra-cellular bacteria were plated on LB agar containing 50 μg/ml ampicillin for selection of LF82. The plates were incubated overnight at 37° C. and colony counts were performed.
Experiments were performed as described for colicin E1 except that infected macrophages were treated with colicin for 4 and 24 hours.

[4] = molecular target: outer membrane receptor BtuB (Escherichia coli, UniProt P06129); conditions: read-out: affinity for outer membrane receptor BtuB; Housden et al., 2005; cited from earlier work
Sequence of outer membrane receptor BtuB (P06129 21-614): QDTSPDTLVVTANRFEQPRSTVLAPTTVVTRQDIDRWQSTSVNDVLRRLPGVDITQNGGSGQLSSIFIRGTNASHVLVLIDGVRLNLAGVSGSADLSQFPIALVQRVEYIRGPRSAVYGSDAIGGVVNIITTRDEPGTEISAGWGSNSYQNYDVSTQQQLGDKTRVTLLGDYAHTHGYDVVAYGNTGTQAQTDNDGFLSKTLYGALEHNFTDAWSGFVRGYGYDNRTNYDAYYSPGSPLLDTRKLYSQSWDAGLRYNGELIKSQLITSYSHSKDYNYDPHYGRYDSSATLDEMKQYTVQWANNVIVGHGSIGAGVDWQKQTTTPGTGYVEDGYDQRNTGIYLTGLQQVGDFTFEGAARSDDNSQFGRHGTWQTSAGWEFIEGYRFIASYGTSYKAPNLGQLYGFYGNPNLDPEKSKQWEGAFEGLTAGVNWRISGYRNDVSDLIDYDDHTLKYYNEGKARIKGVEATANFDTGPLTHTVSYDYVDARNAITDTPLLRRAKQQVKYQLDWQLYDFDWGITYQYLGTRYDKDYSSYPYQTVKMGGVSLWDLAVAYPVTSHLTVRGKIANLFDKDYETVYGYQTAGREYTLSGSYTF

Row | Molecule | sensitivity of AIEC isolates in spot tests [1] | ability to kill AIEC in the biofilm state [2] | antimicrobial activity against biofilm-associated cells compared with ampicillin, metronidazole and rifaximin [2] | relative effectiveness among colicins in killing AIEC in the biofilm state [2] | killing of intracellular LF82 in infected macrophages [3] | Kd [4] [nM] | reduction in the number of bacteria recovered from the macrophages ([3]; 10 μg/ml, 3 h, LF82-infected J774 macrophages) [%]
1 | Colicin E9 (protein, listed as Escherichia coli) MSGGDGRGHNTGAHSTSGNINGGPTGIGVSGGASDGSGWSSENNPWGGGSGSGIHWGGGSGRGNGGGNGNSGGGSGTGGNLSAVAAPVAFGFPALSTPGAGGLAVSISASELSAAIAGIIAKLKKVNLKFTPFGVVLSSLIPSEIAKDDPNMMSKIVTSLPADDITESPVSSLPLDKATVNVNVRVVDDVKDERQNISVVSGVPMSVPVVDAKPTERPGVFTASIPGAPVLNISVNDSTPAVQTLSPGVTNNTDKDVRPAGFTQGGNTRDAVIRFPKDSGHNAVYVSVSDVLSPDQVKQRQDEENRRQQEWDATHPVEAAERNYERARAELNQANEDVARNQERQAKAVQVYNSRKSELDAANKTLADAIAEIKQFNRFAHDPMAGGHRMWQMAGLKAQRAQTDVNNKQAAFDAAAKEKSDADAALSAAQERRKQKENKEKDAKDKLDKESKRNKPGKATGKGKPVGDKWLDDAGKDSGAPIPDRIADKLRDKEFKSFDDFRKAVWEEVSKDPELSKNLNPSNKSSVSKGYSPFTPKNQQVGGRKVYELHHDKPISQGGEVYDMDNIRVTTPKRHIDIHRGK | sensitive | good killing activity | superior antimicrobial activity | most effective | able to kill intracellular LF82 | 2 | –
2 | Colicin E1 (protein, listed as Escherichia coli) METAVAYYKDGVPYDDKGQVIITLLNGTPDGSGSGGGGGKGGSKSESSAAIHATAKWSTAQLKKTQAEQAARAKAAAEAQAKAKANRDALTQRLKDIVNEALRHNASRTPSATELAHANNAAMQAEDERLRLAKAEEKARKEAEAAEKAFQEAEQRRKEIEREKAETERQLKLAEAEEKRLAALSEEAKAVEIAQKKLSAAQSEVVKMDGEIKTLNSRLSSSIHARDAEMKTLAGKRNELAQASAKYKELDELVKKLSPRANDPLQNRPFFEATRRRVGAGKIREEKQKQVTASETRINRINADITQIQKAISQVSNNRNAGIARVHEAEENLKKAQNNLLNSQIKDAVDATVSFYQTLTEKYGEKYSKMAQELADKSKGKKIGNVNEALAAFEKYKDVLNKKFSKADRDAIFNALASVKYDDWAKHLDQFAKYLKITGHVSFGYDVVSDILKIKDTGDWKPLFLTLEKKAADAGVSYVVALLFSLLAGTTLGIWGIAIVTGILCSYIDKNKLNTINEVLGI | sensitive | good killing activity | superior antimicrobial activity | most effective | – | – | ~80
3 | Colicin E3 (protein, listed as Escherichia coli) MSGGDGRGHNTGAHSTSGNINGGPTGLGVGGGASDGSGWSSENNPWGGGSGSGIHWGGGSGHGNGGGNGNSGGGSGTGGNLSAVAAPVAFGFPALSTPGAGGLAVSISAGALSAAIADIMAALKGPFKFGLWGVALYGVLPSQIAKDDPNMMSKIVTSLPADDITESPVSSLPLDKATVNVNVRVVDDVKDERQNISVVSGVPMSVPVVDAKPTERPGVFTASIPGAPVLNISVNNSTPAVQTLSPGVTNNTDKDVRPAGFTQGGNTRDAVIRFPKDSGHNAVYVSVSDVLSPDQVKQRQDEENRRQQEWDATHPVEAAERNYERARAELNQANEDVARNQERQAKAVQVYNSRKSELDAANKTLADAIAEIKQFNRFAHDPMAGGHRMWQMAGLKAQRAQTDVNNKQAAFDAAAKEKSDADAALSSAMESRKKKEDKKRSAENNLNDEKNKPRKGFKDYGHDYHPAPKTENIKGLGDLKPGIPKTPKQNGGGKRKRWTGDKGRKIYEWDSQHGELEGYRASDGQHLGSFDPKTGNQLKGPDPKRNIKKYL | sensitive | good killing activity | – | – | – | – | –
4 | Colicin D (protein, listed as Escherichia coli) MSDYEGSGPTEGIDYGHSMVVWPSTGLISGGDVKPGGSSGIAPSMPPGWGDYSPQGIALVQSVLFPGIIRRIILDKELEEGDWSGWSVSVHSPWGNEKVSAARTVLENGLRGGLPEPSRPAAVSFARLEPASGNEQKIIRLMVTQQLEQVTDIPASQLPAAGNNVPVKYRLMDLMQNGTQYMAIIGGIPMTVPVVDAVPVPDRSRPGTNIKDVYSAPVSPNLPDLVLSVGQMNTPVLSNPEIQEEGVIAETGNYVEAGYTMSSNNHDVIVRFPEGSDVSPLYISTVEILDSNGLSQRQEAENKAKDDFRVKKEEAVARAEAEKAKAELFSKAGVNQPPVYTQEMMERANSVMNEQGALVLNNTASSVQLAMTGTGVWTAAGDIAGNISKFFSNALEKVTIPEVSPLLMRISLGALWFHSEEAGAGSDIVPGRNLEAMFSLSAQMLAGQGVVIEPGATSVNLPVRGQLINSNGQLALDLLKTGNESIPAAVPVLNAVRDTATGLDKITLPAVVGAPSRTILVNPVPQPSVPTDTGNHQPVPVTPVHTGTEVKSVEMPVTTITPVSDVGGLRDFIYWRPDAAGTGVEAVYVMLNDPLDSGRFSRKQLDKKYKHAGDFGISDTKKNRETLTKFRDAIEEHLSDKDTVEKGTYRREKGSKVYFNPNTMNVVIIKSNGEFLSGWKINPDADNGRIYLETGEL | sensitive | good killing activity | – | – | – | – | –
5 | Colicin Ia (protein, listed as Escherichia coli) MSDPVRITNPGAESLGYDSDGHEIMAVDIYVNPPRVDVFHGTPPAWSSFGNKTIWGGNEWVDDSPTRSDIEKRDKEITAYKNTLSAQQKENENKRTEAGKRLSAAIAAREKDENTLKTLRAGNADAADITRQEFRLLQAELREYGFRTEIAGYDALRLHTESRMLFADADSLRISPREARSLIEQAEKRQKDAQNADKKAADMLAEYERRKGILDTRLSELEKNGGAALAVLDAQQARLLGQQTRNDRAISEARNKLSSVTESLNTARNALTRAEQQLTQQKNTPDGKTIVSPEKFPGRSSTNHSIVVSGDPRFAGTIKITTSAVIDNRANLNYLLSHSGLDYKRNILNDRNPVVTEDVEGDKKIYNAEVAEWDKLRQRLLDARNKITSAESAVNSARNNLSARTNEQKHANDALNALLKEKENIRNQLSGINQKIAEEKRKQDELKATKDAINFTTEFLKSVSEKYGAKAEQLAREMAGQAKGKKIRNVEEALKTYEKYRADINKKINAKDRAAIAAALESVKLSDISSNLNRFSRGLGYAGKFTSLADWITEFGKAVRTENWRPLFVKTETIIAGNAATALVALVFSILTGSALGIIGYGLLMAVTGALIDESLVEKANKFWGI | – | good killing activity | – | – | – | – | –
6 | colicin E9 H575A: catalytically inactive colicin E9 variant (protein, UniProt P09883 1-582, looked up, variant H575A) Colicin-E9: MSGGDGRGHNTGAHSTSGNINGGPTGIGVSGGASDGSGWSSENNPWGGGSGSGIHWGGGSGRGNGGGNGNSGGGSGTGGNLSAVAAPVAFGFPALSTPGAGGLAVSISASELSAAIAGIIAKLKKVNLKFTPFGVVLSSLIPSEIAKDDPNMMSKIVTSLPADDITESPVSSLPLDKATVNVNVRVVDDVKDERQNISVVSGVPMSVPVVDAKPTERPGVFTASIPGAPVLNISVNDSTPAVQTLSPGVTNNTDKDVRPAGFTQGGNTRDAVIRFPKDSGHNAVYVSVSDVLSPDQVKQRQDEENRRQQEWDATHPVEAAERNYERARAELNQANEDVARNQERQAKAVQVYNSRKSELDAANKTLADAIAEIKQFNRFAHDPMAGGHRMWQMAGLKAQRAQTDVNNKQAAFDAAAKEKSDADAALSAAQERRKQKENKEKDAKDKLDKESKRNKPGKATGKGKPVGDKWLDDAGKDSGAPIPDRIADKLRDKEFKSFDDFRKAVWEEVSKDPELSKNLNPSNKSSVSKGYSPFTPKNQQVGGRKVYELHHDKPISQGGEVYDMDNIRVTTPKRAIDIHRGK | – | – | – | – | no killing | – | –
